Assay results as given in US8598314B2 (priority 2007, dated 2013).
Read-outs that look alike come from different tables or passages of the source.

Assays:
Recombinant DPP-IV = Recombinant DPP-IV (Homo sapiens, UniProt P27487); assay: DPP-IV resistance assay by mass spectrometry
Procedure: The peptides were then desalted and concentrated on a C18 peptide micro trap (Michrom Bioresources, Inc., Auburn, Calif.) prior to introduction to a LTQ FT™ mass spectrometer (Thermo-Electron Corp., Waltham, Mass.) via an autosampler (Michrom Bioresources, Inc.). Peptides were eluted from a C5 packed 75 μm fused silica pico-frit column (New Objective, Inc., Woburn, Mass.) using a 5-60% acetonitrile/water gradient over 50 minutes at a flow rate of 500 nl/min. Extracted ion mass windows for the calculated m/z values of the most dominant charge states were used to search for both the parent compound and the theoretical hydrolyzed products within a given chromatogram. Exact mass was confirmed for each charge state by FT. The percentage of hydrolysis catalyzed by DPP-IV was estimated by dividing the area of product ions by the area of the total (parent+product) ions.
The estimated cleavage product conversion is based on the ratio of the ion extract area (indicated on top of the peaks) for [product ion]^5+ over that for total ions ([Mother Ion]^5++[product ion]^5+). The m/z ratios used to search for the expected ions are listed on the right side of the plots.

[1] = in vivo; cited from earlier work

Recombinant DPP-IV, sequence (P27487 whole entry, species assumed, the tested form may be a part): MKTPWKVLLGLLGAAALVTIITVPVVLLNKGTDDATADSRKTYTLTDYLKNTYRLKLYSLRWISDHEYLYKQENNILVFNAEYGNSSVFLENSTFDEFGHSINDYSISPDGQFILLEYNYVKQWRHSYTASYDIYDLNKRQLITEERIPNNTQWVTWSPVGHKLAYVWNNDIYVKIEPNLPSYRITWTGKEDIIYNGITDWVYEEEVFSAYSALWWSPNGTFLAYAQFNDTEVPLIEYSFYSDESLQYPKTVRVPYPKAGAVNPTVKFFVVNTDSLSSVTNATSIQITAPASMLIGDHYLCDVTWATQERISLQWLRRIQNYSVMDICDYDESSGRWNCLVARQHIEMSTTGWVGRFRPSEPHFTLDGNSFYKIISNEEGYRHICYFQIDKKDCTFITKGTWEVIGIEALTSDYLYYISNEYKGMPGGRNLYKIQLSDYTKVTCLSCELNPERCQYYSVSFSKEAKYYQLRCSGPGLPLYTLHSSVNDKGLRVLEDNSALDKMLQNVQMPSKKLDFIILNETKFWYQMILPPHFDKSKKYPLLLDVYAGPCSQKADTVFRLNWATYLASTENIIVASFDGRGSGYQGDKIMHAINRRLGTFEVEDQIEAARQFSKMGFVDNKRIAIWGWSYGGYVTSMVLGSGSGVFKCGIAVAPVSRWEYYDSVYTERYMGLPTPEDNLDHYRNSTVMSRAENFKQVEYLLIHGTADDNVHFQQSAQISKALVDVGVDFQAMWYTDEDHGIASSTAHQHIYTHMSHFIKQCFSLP

## CC[C@H](C)[C@H](NC(=O)[C@H](Cc1ccccc1)NC(=O)[C@H](CCC(=O)O)NC(=O)[C@H](CCCCN)NC(=O)[C@H](C)NC(=O)[C@H](C)NC(=O)[C@H](CCC(N)=O)NC(=O)CNC(=O)[C@H](CCC(=O)O)NC(=O)[C@H](CC(C)C)NC(=O)[C@H](Cc1ccc(O)cc1)NC(=O)[C@H](CO)NC(=O)[C@H](CO)NC(=O)[C@@H](NC(=O)[C@H](CC(=O)O)NC(=O)[C@H](CO)NC(=O)[C@@H](NC(=O)[C@H](Cc1ccccc1)NC(=O)[C@@H](NC(=O)CNC(=O)[C@H](CCC(=O)O)NC(=O)[C@H](C)NC(=O)[C@@H](N)Cc1c[nH]cn1)[C@@H](C)O)[C@@H](C)O)C(C)C)C(=O)N[C@@H](C)C(=O)N[C@@H](Cc1c[nH]c2ccccc12)C(=O)N[C@@H](CC(C)C)C(=O)N[C@H](C(=O)N[C@@H](CCCCN)C(=O)NCC(=O)N[C@@H](CCCNC(=N)N)C(=O)NCC(=O)NCC(=O)NCC(=O)NCCCC[C@H](N)C(=O)N1CCSC1)C(C)C [Compound 4844, GLP-1(7-37)-GG-(S)-2,6-diamino-1-(thiazolidin-3-yl)hexan-1-one amide]
Recombinant DPP-IV; treated with 0.1 mU DPP-IV
  DPP-IV resistance (in words): expected product ions were not observed

## CC[C@H](C)[C@H](NC(=O)[C@H](Cc1ccccc1)NC(=O)[C@H](CCC(=O)O)NC(=O)[C@H](CCCCN)NC(=O)[C@H](C)NC(=O)[C@H](C)NC(=O)[C@H](CCC(N)=O)NC(=O)CNC(=O)[C@H](CCC(=O)O)NC(=O)[C@H](CC(C)C)NC(=O)[C@H](Cc1ccc(O)cc1)NC(=O)[C@H](CO)NC(=O)[C@H](CO)NC(=O)[C@@H](NC(=O)[C@H](CC(=O)O)NC(=O)[C@H](CO)NC(=O)[C@@H](NC(=O)[C@H](Cc1ccccc1)NC(=O)[C@@H](NC(=O)CNC(=O)[C@H](CCC(=O)O)NC(=O)[C@H](C)NC(=O)[C@@H](N)Cc1c[nH]cn1)[C@@H](C)O)[C@@H](C)O)C(C)C)C(=O)N[C@@H](C)C(=O)N[C@@H](Cc1c[nH]c2ccccc12)C(=O)N[C@@H](CC(C)C)C(=O)N[C@H](C(=O)N[C@@H](CCCCN)C(=O)NCC(=O)N[C@@H](CCCNC(=N)N)C(N)=O)C(C)C [GLP-1, reference compound]
[1]
  metabolic clearance rate: 12 to 13 min

## CC[C@H](C)[C@H](NC(=O)[C@H](Cc1ccccc1)NC(=O)[C@H](CCC(=O)O)NC(=O)[C@H](CCCCN)NC(=O)[C@H](C)NC(=O)[C@H](C)NC(=O)[C@H](CCC(N)=O)NC(=O)CNC(=O)[C@H](CCC(=O)O)NC(=O)[C@H](CC(C)C)NC(=O)[C@H](Cc1ccc(O)cc1)NC(=O)[C@H](CO)NC(=O)[C@H](CO)NC(=O)[C@@H](NC(=O)[C@H](CC(=O)O)NC(=O)[C@H](CO)NC(=O)[C@@H](NC(=O)[C@H](Cc1ccccc1)NC(=O)[C@@H](NC(=O)CNC(=O)[C@H](CCC(=O)O)NC(=O)[C@H](C)NC(=O)[C@@H](N)Cc1c[nH]cn1)[C@@H](C)O)[C@@H](C)O)C(C)C)C(=O)N[C@@H](C)C(=O)N[C@@H](Cc1c[nH]c2ccccc12)C(=O)N[C@@H](CC(C)C)C(=O)N[C@H](C(=O)N[C@@H](CCCCN)C(=O)NCC(=O)N[C@@H](CCCNC(=N)N)C(=O)NCC(=O)NCC(=O)NCC(=O)NCCCC[C@H](N)C(=O)N1CCSC1C#N)C(C)C (stereo partly drawn) [Compound 4845, GLP-1(7-37)-GG-(S)-2,6-diamino-1-(thiazolidin-2-cyano-3-yl)hexan-1-one amide]
Recombinant DPP-IV
  DPP-IV resistance (in words): expected product ions were not observed
